Kd and koff data for one molecule are collected here from publication PMC8865451 (Journal of Virology, 2021).

For this assay, the target named is hyper-IL-6 (HIL-6). The assay can be described thus: SPR.
Chain of hyper-IL-6 (HIL-6) (A0N0L4 whole entry): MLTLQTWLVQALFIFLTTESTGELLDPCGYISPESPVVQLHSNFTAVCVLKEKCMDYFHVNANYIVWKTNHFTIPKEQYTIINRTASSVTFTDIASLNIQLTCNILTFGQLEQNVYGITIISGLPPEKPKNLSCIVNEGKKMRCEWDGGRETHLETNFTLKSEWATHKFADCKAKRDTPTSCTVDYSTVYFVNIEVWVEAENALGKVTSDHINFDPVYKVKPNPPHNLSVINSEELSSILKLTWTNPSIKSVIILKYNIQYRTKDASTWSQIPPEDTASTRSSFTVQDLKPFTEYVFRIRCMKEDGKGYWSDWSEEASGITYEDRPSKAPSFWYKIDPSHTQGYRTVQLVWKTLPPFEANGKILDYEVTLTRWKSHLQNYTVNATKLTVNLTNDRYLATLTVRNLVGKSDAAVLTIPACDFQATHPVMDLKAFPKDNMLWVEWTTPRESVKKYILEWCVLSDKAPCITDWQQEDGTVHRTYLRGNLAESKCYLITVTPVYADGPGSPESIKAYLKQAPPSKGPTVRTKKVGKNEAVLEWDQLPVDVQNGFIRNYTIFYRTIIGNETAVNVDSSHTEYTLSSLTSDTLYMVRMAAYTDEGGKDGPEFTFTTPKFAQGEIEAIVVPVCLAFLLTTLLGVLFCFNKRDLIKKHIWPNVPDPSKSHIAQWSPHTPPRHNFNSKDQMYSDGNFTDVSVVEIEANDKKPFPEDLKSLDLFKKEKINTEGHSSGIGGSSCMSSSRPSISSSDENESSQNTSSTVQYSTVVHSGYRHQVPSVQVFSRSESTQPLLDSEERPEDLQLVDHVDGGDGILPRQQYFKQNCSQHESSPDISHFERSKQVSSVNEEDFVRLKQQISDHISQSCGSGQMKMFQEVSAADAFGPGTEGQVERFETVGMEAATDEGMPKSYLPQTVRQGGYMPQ

B1: c19s130Fc (Fc fusion)
chain: ELLDPCGYISPESPVVQLHSNFTAVCVLKEKCMDYFHVNANYIVWKTNHFTIPKEQYTIINRTASSVTFTDIASLNIQLTCNILTFGQLEQNVYGITIISGLPPEKPKNLSCIVNEGKKMRCEWDGGRETHLETNFTLKSEWATHKFADCKAKRDTPTSCTVDYSTVYFVNIEVWVEAENALGKVTSDHINFDPVYKVKPNPPHNLSVINSEELSSILKLTWTNPSIKSVIILKYNIQYRTKDASTWSQIPPEDTASTRSSFTVQDLKPFTEYVFRIRCMKEDGKGYWSDWSEEASGITYEDDVQFVESGGGSVHAGGSLRLNCATSGYIYSTYCMGWFRQAPGKEREGVAHIYTNSGRTYYADSVKGRFTISQDNAKNTVYLQMNSLKPEDTAIYYCAARPSIRCASFSATEYKDWGQGTQVTVSSTGGGGSGGGGSGGGGTGQVQLQESGGGLVQAGGSLRLSCAASGRTFSEYAMGWFRQAPGKEREFVATISWSGGSTYYTDSVKGRFTISRDNAKNTVYLQMNSLKPDDTAVYYCAAAGLGTVVSEWDYDYDYWGQGTQVTVSS
B1: binding was characterised by a dissociation constant (Kd) of 0.055 nM and the koff was found to be 7.1e-05 s⁻¹.
